Assay results published in PMC8730730.

What was measured:
[1] = Mca-Ala-Pro-Lys(Dnp) hydrolysis, spectrofluorimetry; settings: glycan lost; control: native rshACE2
SEC-MALS = settings: glycan lost; control: native rshACE2

For “rshACE2 (recombinant soluble human ACE2, APN01): PNGase F (deglyco-rshACE2)”, the “enzymatic_activity, percent_of_wt” value [1] was “increases” and the oligomerisation (SEC-MALS) was “no change”.
